Measured values from article PMC8626583, “Collagen’s primary structure determines collagen:HSP47 complex stoichiometry” (The Journal of Biological Chemistry, 2021).

Biological target: collagen model peptide Ac-(PPG)2PTGPRG(PPG)2-NH2
Assay: crystal structure; HSP47 H273N/H274N with Ac-(PPG)2PTGPRG(PPG)2-NH2, space group P2_(1); crystallization conditions not told

- stoichiometry N (HSP47 per collagen triple helix): 2
Substance: HSP47 double-mutant H273N/H274N (natural protein)
